Data reported in patent publication US20250388628A1 (Genentech, published 2025).

B7: AAV2 VP3 VLP A593E (other)
chain: MATGSGAPMADNNEGADGVGNSSGNWHCDSTWMGDRVITTSTRTWALPTYNNHLYKQISSQSGASNDNHYFGYSTPWGYFDFNRFHCHFSPRDWQRLINNNWGFRPKRLNFKLFNIQVKEVTQNDGTTTIANNLTSTVQVFTDSEYQLPYVLGSAHQGCLPPFPADVFMVPQYGYLTLNNGSQAVGRSSFYCLEYFPSQMLRTGNNFTFSYTFEDVPFHSSYAHSQSLDRLMNPLIDQYLYYLSRTNTPSGTTTQSRLQFSQAGASDIRDQSRNWLPGPCYRQQRVSKTSADNNNSEYSWTGATKYHLNGRDSLVNPGPAMASHKDDEEKFFPQSGVLIFGKQGSEKTNVDIEKVMITDEEEIRTTNPVATEQYGSVSTNLQRGNRQAATEDVNTQGVLPGMVWQDRDVYLQGPIWAKIPHTDGHFHPSPLMGGFGLKHPPPQILIKNTPVPANPSTTFSAAKFASFITQYSTGQVSVEIEWELQKENSKRWNPEIQYTSNYNKSVNVDFTVDTNGVYSEPRPIGTRYLTRNL
notes: VP3-only VLP
B8: AAV2 VP3 VLP T592D (other)
chain: MATGSGAPMADNNEGADGVGNSSGNWHCDSTWMGDRVITTSTRTWALPTYNNHLYKQISSQSGASNDNHYFGYSTPWGYFDFNRFHCHFSPRDWQRLINNNWGFRPKRLNFKLFNIQVKEVTQNDGTTTIANNLTSTVQVFTDSEYQLPYVLGSAHQGCLPPFPADVFMVPQYGYLTLNNGSQAVGRSSFYCLEYFPSQMLRTGNNFTFSYTFEDVPFHSSYAHSQSLDRLMNPLIDQYLYYLSRTNTPSGTTTQSRLQFSQAGASDIRDQSRNWLPGPCYRQQRVSKTSADNNNSEYSWTGATKYHLNGRDSLVNPGPAMASHKDDEEKFFPQSGVLIFGKQGSEKTNVDIEKVMITDEEEIRTTNPVATEQYGSVSTNLQRGNRQAADADVNTQGVLPGMVWQDRDVYLQGPIWAKIPHTDGHFHPSPLMGGFGLKHPPPQILIKNTPVPANPSTTFSAAKFASFITQYSTGQVSVEIEWELQKENSKRWNPEIQYTSNYNKSVNVDFTVDTNGVYSEPRPIGTRYLTRNL
notes: VP3-only VLP
B9: AAV receptor (AAVR) fragment comprising the domains PKD1 and PKD2 (residues V305-V499) (receptor)
chain: VIKELVVSAGESVQITLPKNEVQLNAYVLQEPPKGETYTYDWQLITHPRDYSGEMEGKHSQILKLSKLTPGLYEFKVIVEGQNAHGEGYVNVTVKPEPRKNRPPIAIVSPQFQEISLPTTSTVIDGSQSTDDDKIVQYHWEELKGPLREEKISEDTAILKLSKLVPGNYTFSLTVVDSDGATNSTTANLTVNKAV

Columns and labels:
[1] = target: B9; test: SPR; against wild-type VLP
[2] = target: B9; test: SPR; captured AAV9 VP3 VLP, AAVR analyte
[3] = target: B9; test: SPR; affinity against wild-type AAV2 VLP
AAV2 VP3 VLP A593E = target: B7; test: SPR; captured AAV2 VP3 VLP, AAVR analyte
AAV2 VP3 VLP T592D/A593E = target: T1, AAV2 VP3 VLP T592D/A593E (adeno-associated virus serotype 2 (AAV2), UniProt P03135 203-735); test: SPR; captured AAV2 VP3 VLP, AAVR analyte
T1 construct: VP3-only VLP

AAV2 VP3 VLP T592D = target: B8; test: SPR; captured AAV2 VP3 VLP, AAVR analyte
Wild-type AAV2 VP3 VLP = target: T2, Wild-type AAV2 VP3 VLP (adeno-associated virus serotype 2 (AAV2), UniProt P03135 203-735); test: SPR; captured AAV2 VP3 VLP, AAVR analyte
T2 construct: VP3-only VLP; also called Wild-type AAV2 VLP (WT); WT

B1: AAV9 VP3 VLP A273N, A472H, E500P (other)
VP3: MASGGGAPVADNNEGADGVGSSSGNWHCDSQWLGDRVITTSTRTWALPTYNNHLYKQISNSTSGGSSNDNNYFGYSTPWGYFDFNRFHCHFSPRDWQRLINNNWGFRPKRLNFKLFNIQVKEVTDNNGVKTIANNLTSTVQVFTDSDYQLPYVLGSAHEGCLPPFPADVFMIPQYGYLTLNDGSQAVGRSSFYCLEYFPSQMLRTGNNFQFSYEFENVPFHSSYAHSQSLDRLMNPLIDQYLYYLSKTINGSGQNQQTLKFSVAGPSNMHVQGRNYIPGPSYRQQRVSTTVTQNNNSPFAWPGASSWALNGRNSLMNPGPAMASHKEGEDRFFPLSGSLIFGKQGTGRDNVDADKVMITNEEEIKTTNPVATESYGQVATNHQSAQAQAQTGWVQNQGILPGMVWQDRDVYLQGPIWAKIPHTDGNFHPSPLMGGFGMKHPPPQILIKNTPVPADPPTAFNKDKLNSFITQYSTGQVSVEIEWELQKENSKRWNPEIQYTSNYYKSNNVEFAVNTEGVYSEPRPIGTRYLTRNL
notes: VP3-only VLP
For B1, which “KD Fold Change” value [1] is on record?
Its value is 455 fold.

And the Kd [2]?
Its Kd is 5.14 nM.

What about the koff [2] of the same binder?
The koff was 0.000236 s⁻¹.

And the kon [2]?
The kon was 45900 M⁻¹ s⁻¹.

B2: AAV9 VP3 VLP A273N, Q387K, A472H, E500P (other)
VP3: MASGGGAPVADNNEGADGVGSSSGNWHCDSQWLGDRVITTSTRTWALPTYNNHLYKQISNSTSGGSSNDNNYFGYSTPWGYFDFNRFHCHFSPRDWQRLINNNWGFRPKRLNFKLFNIQVKEVTDNNGVKTIANNLTSTVQVFTDSDYQLPYVLGSAHEGCLPPFPADVFMIPQYGYLTLNDGSKAVGRSSFYCLEYFPSQMLRTGNNFQFSYEFENVPFHSSYAHSQSLDRLMNPLIDQYLYYLSKTINGSGQNQQTLKFSVAGPSNMHVQGRNYIPGPSYRQQRVSTTVTQNNNSPFAWPGASSWALNGRNSLMNPGPAMASHKEGEDRFFPLSGSLIFGKQGTGRDNVDADKVMITNEEEIKTTNPVATESYGQVATNHQSAQAQAQTGWVQNQGILPGMVWQDRDVYLQGPIWAKIPHTDGNFHPSPLMGGFGMKHPPPQILIKNTPVPADPPTAFNKDKLNSFITQYSTGQVSVEIEWELQKENSKRWNPEIQYTSNYYKSNNVEFAVNTEGVYSEPRPIGTRYLTRNL
notes: VP3-only VLP
With B2 as the binder, how does the “KD Fold Change” value [1] read?
The value was 5560 fold.

And the Kd [2]?
Its Kd is 0.421 nM.

What about the koff [2] of the same binder?
The koff was 3.96e-05 s⁻¹.

And the kon [2]?
Its kon is 94000 M⁻¹ s⁻¹.

B3: AAV9 VP3 VLP I451Y, S454I, E500P (other)
chain: MASGGGAPVADNNEGADGVGSSSGNWHCDSQWLGDRVITTSTRTWALPTYNNHLYKQISNSTSGGSSNDNAYFGYSTPWGYFDFNRFHCHFSPRDWQRLINNNWGFRPKRLNFKLFNIQVKEVTDNNGVKTIANNLTSTVQVFTDSDYQLPYVLGSAHEGCLPPFPADVFMIPQYGYLTLNDGSQAVGRSSFYCLEYFPSQMLRTGNNFQFSYEFENVPFHSSYAHSQSLDRLMNPLIDQYLYYLSKTYNGIGQNQQTLKFSVAGPSNMAVQGRNYIPGPSYRQQRVSTTVTQNNNSPFAWPGASSWALNGRNSLMNPGPAMASHKEGEDRFFPLSGSLIFGKQGTGRDNVDADKVMITNEEEIKTTNPVATESYGQVATNHQSAQAQAQTGWVQNQGILPGMVWQDRDVYLQGPIWAKIPHTDGNFHPSPLMGGFGMKHPPPQILIKNTPVPADPPTAFNKDKLNSFITQYSTGQVSVEIEWELQKENSKRWNPEIQYTSNYYKSNNVEFAVNTEGVYSEPRPIGTRYLTRNL
notes: VP3-only VLP
For B3, which “KD Fold Change” value [1] is on record?
The value was 217 fold.

B4: AAV9 VP3 VLP Q387K, A472H, E500P (other)
VP3: MASGGGAPVADNNEGADGVGSSSGNWHCDSQWLGDRVITTSTRTWALPTYNNHLYKQISNSTSGGSSNDNAYFGYSTPWGYFDFNRFHCHFSPRDWQRLINNNWGFRPKRLNFKLFNIQVKEVTDNNGVKTIANNLTSTVQVFTDSDYQLPYVLGSAHEGCLPPFPADVFMIPQYGYLTLNDGSKAVGRSSFYCLEYFPSQMLRTGNNFQFSYEFENVPFHSSYAHSQSLDRLMNPLIDQYLYYLSKTINGSGQNQQTLKFSVAGPSNMHVQGRNYIPGPSYRQQRVSTTVTQNNNSPFAWPGASSWALNGRNSLMNPGPAMASHKEGEDRFFPLSGSLIFGKQGTGRDNVDADKVMITNEEEIKTTNPVATESYGQVATNHQSAQAQAQTGWVQNQGILPGMVWQDRDVYLQGPIWAKIPHTDGNFHPSPLMGGFGMKHPPPQILIKNTPVPADPPTAFNKDKLNSFITQYSTGQVSVEIEWELQKENSKRWNPEIQYTSNYYKSNNVEFAVNTEGVYSEPRPIGTRYLTRNL
notes: VP3-only VLP
How did the “KD Fold Change” value [1] turn out when B4 was run?
The value was 3370 fold.

And the Kd [2]?
The Kd was 0.694 nM.

What about the koff [2] of the same binder?
Its koff is 0.000338 s⁻¹.

And the kon [2]?
Its kon is 487000 M⁻¹ s⁻¹.

B5: AAV9 VP3 VLP I451Y, S454I, E500P, P504I (other)
chain: MASGGGAPVADNNEGADGVGSSSGNWHCDSQWLGDRVITTSTRTWALPTYNNHLYKQISNSTSGGSSNDNAYFGYSTPWGYFDFNRFHCHFSPRDWQRLINNNWGFRPKRLNFKLFNIQVKEVTDNNGVKTIANNLTSTVQVFTDSDYQLPYVLGSAHEGCLPPFPADVFMIPQYGYLTLNDGSQAVGRSSFYCLEYFPSQMLRTGNNFQFSYEFENVPFHSSYAHSQSLDRLMNPLIDQYLYYLSKTYNGIGQNQQTLKFSVAGPSNMAVQGRNYIPGPSYRQQRVSTTVTQNNNSPFAWIGASSWALNGRNSLMNPGPAMASHKEGEDRFFPLSGSLIFGKQGTGRDNVDADKVMITNEEEIKTTNPVATESYGQVATNHQSAQAQAQTGWVQNQGILPGMVWQDRDVYLQGPIWAKIPHTDGNFHPSPLMGGFGMKHPPPQILIKNTPVPADPPTAFNKDKLNSFITQYSTGQVSVEIEWELQKENSKRWNPEIQYTSNYYKSNNVEFAVNTEGVYSEPRPIGTRYLTRNL
modifications: One VP3 subunit is given; in the assay it stood assembled as a VP3-only icosahedral VLP capsid.
notes: VP3-only VLP
B5 was tested. Which “KD Fold Change” value [1] did it give?
The value was 214 fold.

B6: AAV9 VP3 VLP I451Y, S454I, E500P, P504T (other)
chain: MASGGGAPVADNNEGADGVGSSSGNWHCDSQWLGDRVITTSTRTWALPTYNNHLYKQISNSTSGGSSNDNAYFGYSTPWGYFDFNRFHCHFSPRDWQRLINNNWGFRPKRLNFKLFNIQVKEVTDNNGVKTIANNLTSTVQVFTDSDYQLPYVLGSAHEGCLPPFPADVFMIPQYGYLTLNDGSQAVGRSSFYCLEYFPSQMLRTGNNFQFSYEFENVPFHSSYAHSQSLDRLMNPLIDQYLYYLSKTYNGIGQNQQTLKFSVAGPSNMAVQGRNYIPGPSYRQQRVSTTVTQNNNSPFAWTGASSWALNGRNSLMNPGPAMASHKEGEDRFFPLSGSLIFGKQGTGRDNVDADKVMITNEEEIKTTNPVATESYGQVATNHQSAQAQAQTGWVQNQGILPGMVWQDRDVYLQGPIWAKIPHTDGNFHPSPLMGGFGMKHPPPQILIKNTPVPADPPTAFNKDKLNSFITQYSTGQVSVEIEWELQKENSKRWNPEIQYTSNYYKSNNVEFAVNTEGVYSEPRPIGTRYLTRNL
modifications: One VP3 subunit is given; in the assay it stood assembled as a VP3-only icosahedral VLP capsid.
notes: VP3-only VLP
With B6 as the binder, how does the “KD Fold Change” value [1] read?
Its value is 146 fold.

How did the “Fold change vs WT” value [3] turn out when B7 was run?
Its value is about 4 fold.

B8 was tested. Which “Fold change vs WT” value [3] did it give?
The value was 5 fold.

With B9 as the binder, how does the Kd (AAV2 VP3 VLP A593E) read?
The Kd was 520 nM.

What about the koff (AAV2 VP3 VLP A593E) of the same binder?
The koff was 0.0111 s⁻¹.

What about the kon (AAV2 VP3 VLP A593E) of the same binder?
Its kon is 21600 M⁻¹ s⁻¹.

And the Kd (AAV2 VP3 VLP T592D/A593E)?
The Kd was 330 nM.

And the koff (AAV2 VP3 VLP T592D/A593E)?
Its koff is 0.00652 s⁻¹.

What about the kon (AAV2 VP3 VLP T592D/A593E) of the same binder?
The kon was 19600 M⁻¹ s⁻¹.

What about the Kd (AAV2 VP3 VLP T592D) of the same binder?
Its Kd is 420 nM.

And the koff (AAV2 VP3 VLP T592D)?
The koff was 0.00797 s⁻¹.

And the kon (AAV2 VP3 VLP T592D)?
Its kon is 19100 M⁻¹ s⁻¹.

And the Kd (Wild-type AAV2 VP3 VLP)?
Its Kd is 2100 nM.

What about the koff (Wild-type AAV2 VP3 VLP) of the same binder?
The koff was 0.0311 s⁻¹.

And the kon (Wild-type AAV2 VP3 VLP)?
Its kon is 15100 M⁻¹ s⁻¹.
